Measurements as given in US11332512B2, “Peptides and combination of peptides for use in immunotherapy against various tumors” (Immatics Biotechnologies GmbH, priority 2015, dated 2022).

Tests used:
HLA-A*02:01 = HLA-A*02:01 (Homo sapiens, UniProt P04439, D140Y/D185E/D98H/E176V/E277Q/G131W/G231S/I119V/I121R/I166T/I218V/L300P/L318F/N151K/N90K/P208A/P217A/Q86G/Q94H/R138H/R169H/T345S); experiment: MHC binding assay: UV-ligand exchange with beta2m ELISA (peptide exchange yield); settings: binding to HLA-A*02:01, β2m ELISA
From the text: Candidate peptides for T cell based therapies according to the present invention were further tested for their MHC binding capacity (affinity). The individual peptide-MHC complexes were produced by UV-ligand exchange, where a UV-sensitive peptide is cleaved upon UV-irradiation, and exchanged with the peptide of interest as analyzed. Only peptide candidates that can effectively bind and stabilize the peptide-receptive MHC molecules prevent dissociation of the MHC complexes. To determine the yield of the exchange reaction, an ELISA was performed based on the detection of the light chain (β2m) of stabilized MHC complexes. The assay was performed as generally described in Rodenko et al. (Rodenko et al., 2006).
96 well MAXISorp plates (NUNC) were coated over night with 2 ug/ml streptavidin in PBS at room temperature, washed 4× and blocked for 1 h at 37° C. in 2% BSA containing blocking buffer. Refolded HLA-A*02:01/MLA-001 monomers served as standards, covering the range of 15-500 ng/ml. Peptide-MHC monomers of the UV-exchange reaction were diluted 100 fold in blocking buffer. Samples were incubated for 1 h at 37° C., washed four times, incubated with 2 ug/ml HRP conjugated anti-β2m for 1 h at 37° C., washed again and detected with TMB solution that is stopped with […]. Absorption was measured at 450 nm. Candidate peptides that show a high exchange yield (preferably higher than 50%, most preferred higher than 75%) are generally preferred for a generation and production of antibodies or fragments thereof, and/or T cell receptors or fragments thereof, as they show sufficient avidity to the MHC molecules and prevent dissociation of the MHC complexes.

CD8+ T cells = experiment: In vitro immunogenicity: T-cell priming with aAPCs loaded with peptide/MHC and anti-CD28, pMHC multimer readout; assay type: cell-based, human; settings: for Wells positive [%]: percentage of positive wells among evaluable, HLA-A*02 restricted peptides
From the text: In order to obtain information regarding the immunogenicity of the TUMAPs of the present invention, the inventors performed investigations using an in vitro T-cell priming assay based on repeated stimulations of CD8+ T cells with artificial antigen presenting cells (aAPCs) loaded with peptide/MHC complexes and anti-CD28 antibody.
In order to perform in vitro stimulations by artificial antigen presenting cells loaded with peptide-MHC complex (pMHC) and anti-CD28 antibody, the inventors first isolated CD8+ T cells from fresh HLA-A*02 leukapheresis products via positive selection using CD8 microbeads (Miltenyi Biotec, Bergisch-Gladbach, Germany) of healthy donors obtained from the University clinics Mannheim, Germany, after informed consent. PBMCs and isolated CD8+ lymphocytes were incubated in T-cell medium (TCM) until use consisting of RPMI-Glutamax (Invitrogen, Karlsruhe, Germany) supplemented with 10% heat inactivated human AB serum (PAN-Biotech, Aidenbach, Germany), 100 U/ml Penicillin/100 μg/ml Streptomycin (Cambrex, Cologne, Germany), 1 mM sodium pyruvate (CC Pro, Oberdorla, Germany), 20 μg/ml Gentamycin (Cambrex). 2.5 ng/ml IL-7 (PromoCell, Heidelberg, Germany) and 10 U/ml IL-2 (Novartis Pharma, Nürnberg, Germany) were also added to the TCM at this step. Generation of pMHC/anti-CD28 coated beads, T-cell stimulations and readout was performed in a highly defined in vitro system using four different pMHC molecules per stimulation condition and 8 different pMHC molecules per readout condition.
The purified co-stimulatory mouse IgG2a anti human CD28 Ab 9.3 (Jung et al., 1987) was chemically biotinylated using Sulfo-N-hydroxysuccinimidobiotin as recommended by the manufacturer (Perbio, Bonn, Germany). Beads used were 5.6 μm diameter streptavidin coated polystyrene particles (Bangs Laboratories, Illinois, USA).
pMHC used for positive and negative control stimulations were A*0201/MLA-001 (peptide […] (SEQ ID NO. 289) from modified Melan-A/MART-1) and A*0201/DDX5-001 ([…] from DDX5, SEQ ID NO. 290), respectively.
800.000 beads/200 μl were coated in 96-well plates in the presence of 4×12.5 ng different biotin-pMHC, washed and 600 ng biotin anti-CD28 were added subsequently in a volume of 200 μl. Stimulations were initiated in 96-well plates by co-incubating 1×10^6 CD8+ T cells with 2×10^5 washed coated beads in 200 μl TCM supplemented with 5 ng/ml IL-12 (PromoCell) for 3 days at 37° C. Half of the medium was then exchanged by fresh TCM supplemented with 80 U/ml IL-2 and incubating was continued for 4 days at 37° C. This stimulation cycle was performed for a total of three times. For the pMHC multimer readout using 8 different pMHC molecules per condition, a two-dimensional combinatorial coding approach was used as previously described (Andersen et al., 2012) with minor modifications encompassing coupling to 5 different fluorochromes. Finally, multimeric analyses were performed by staining the cells with Live/dead near IR dye (Invitrogen, Karlsruhe, Germany), CD8-FITC antibody clone SK1 (BD, Heidelberg, Germany) and fluorescent pMHC multimers. For analysis, a BD LSRII SORP cytometer equipped with appropriate lasers and filters was used. Peptide specific cells were calculated as percentage of total CD8+ cells. Evaluation of multimeric analysis was done using the FlowJo software (Tree Star, Oregon, USA). In vitro priming of specific multimer+CD8+ lymphocytes was detected by comparing to negative control stimulations.

Substance | Peptide exchange (MHC class I binding score, peptide exchange yield) (HLA-A*02:01) | Wells positive [%] (CD8+ T cells) | further results
4 (VLFGELPAL; listed as Homo sapiens) [compound 4] | +++ (= ≥50% = +++) | + (<20% = +) | –
9 (SLITGQDLLSV; listed as Homo sapiens) [compound 9] | +++ (= ≥50% = +++) | + (<20% = +) | –
14 (YTFSGDVQL; listed as Homo sapiens) [compound 14] | +++ (= ≥50% = +++) | + (<20% = +) | –
17 (GLLPSAESIKL; listed as Homo sapiens) [compound 17] | – | + (<20% = +) | –
27 (GLLGKVTSV; listed as Homo sapiens) [compound 27] | +++ (= ≥50% = +++) | + (<20% = +) | –
29 (KMISAIPTL; listed as Homo sapiens) [compound 29] | – | + (<20% = +) | –
34 (TLNTLDINL; listed as Homo sapiens) [compound 34] | +++ (= ≥50% = +++) | ++++ (> = 70% = ++++) | –
35 (VIIKGLEEI; listed as Homo sapiens) [compound 35] | – | + (<20% = +) | –
39 (YLEDGFAYV; listed as Homo sapiens) [compound 39] | +++ (= ≥50% = +++) | ++++ (> = 70% = ++++) | –
50 (ILLSVLHQL; listed as Homo sapiens) [compound 50] | +++ (= ≥50% = +++) | + (<20% = +) | –
66 (AMFPDTIPRV; listed as Homo sapiens) [compound 66] | – | + (<20% = +) | –
77 (ALYGNVQQV; listed as Homo sapiens) [compound 77] | +++ (= ≥50% = +++) | + (<20% = +) | –
89 (SLAETIFIV; listed as Homo sapiens) [compound 89] | +++ (= ≥50% = +++) | + (<20% = +) | –
97 (KLFEKSTGL; listed as Homo sapiens) [compound 97] | +++ (= ≥50% = +++) | + (<20% = +) | –
101 (SLLEVNEASSV; listed as Homo sapiens) [compound 101] | +++ (= ≥50% = +++) | + (<20% = +) | –
102 (GLYPVTLVGV; listed as Homo sapiens) [compound 102] | +++ (= ≥50% = +++) | + (<20% = +) | –
121 (ALYVQAPTV; listed as Homo sapiens) [compound 121] | – | + (<20% = +) | –
157 (ILQDGQFLV; listed as Homo sapiens) [compound 157] | – | + (<20% = +) | –
233 (SLFESLEYL; listed as Homo sapiens) [compound 233] | +++ (= ≥50% = +++) | + (<20% = +) | –
236 (KMSELQTYV; listed as Homo sapiens) [compound 236] | +++ (= ≥50% = +++) | + (<20% = +) | –
242 (KLQEEIPVL; listed as Homo sapiens) [compound 242] | +++ (= ≥50% = +++) | + (<20% = +) | –

Substance | Peptide exchange (MHC class I binding score, peptide exchange yield) (HLA-A*02:01) | Wells positive [%] (CD8+ T cells) | further results
246 (ALAGIVTNV; listed as Homo sapiens) [compound 246] | +++ (= ≥50% = +++) | + (<20% = +) | –
253 (KLLAVIHEL; listed as Homo sapiens) [compound 253] | +++ (= ≥50% = +++) | – | –
254 (ALGDKFLLRV; listed as Homo sapiens) [compound 254] | – | + (<20% = +) | –
256 (FLNDIFERI; listed as Homo sapiens) [compound 256] | +++ (= ≥50% = +++) | – | –
261 (GLAALAVHL; listed as Homo sapiens) [compound 261] | +++ (= ≥50% = +++) | – | –
262 (LLLEAVWHL; listed as Homo sapiens) [compound 262] | +++ (= ≥50% = +++) | – | –
264 (TLHDQVHLL; listed as Homo sapiens) [compound 264] | – | + (<20% = +) | –
265 (FLLDKPQDLSI; listed as Homo sapiens) [compound 265] | +++ (= ≥50% = +++) | – | –
270 (TLLTFFHEL; listed as Homo sapiens) [compound 270] | +++ (= ≥50% = +++) | – | –
271 (VLIEYNFSI; listed as Homo sapiens) [compound 271] | +++ (= ≥50% = +++) | – | –
274 (TLYNPERTITV; listed as Homo sapiens) [compound 274] | +++ (= ≥50% = +++) | – | –
276 (RMPTVLQCV; listed as Homo sapiens) [compound 276] | +++ (= ≥50% = +++) | – | –
277 (KLQEELNKV; listed as Homo sapiens) [compound 277] | +++ (= ≥50% = +++) | – | –
278 (VLEDKVLSV; listed as Homo sapiens) [compound 278] | +++ (= ≥50% = +++) | – | –
280 (HLWGHALFL; listed as Homo sapiens) [compound 280] | +++ (= ≥50% = +++) | – | –
283 (ALSELLQQV; listed as Homo sapiens) [compound 283] | +++ (= ≥50% = +++) | – | –
285 (MLLDTVQKV; listed as Homo sapiens) [compound 285] | +++ (= ≥50% = +++) | – | –
286 (FLTEMVHFI; listed as Homo sapiens) [compound 286] | +++ (= ≥50% = +++) | – | –
287 (KIQEILTQV; listed as Homo sapiens) [compound 287] | – | – | wells (CD8+ T cells; percentage of positive wells, in vitro priming of CD8+ T cells of healthy HLA-A*02 donors): + (<20% = +)
288 (SLYKGLLSV; listed as Homo sapiens) [compound 288] | – | – | donors (CD8+ T cells; percentage of positive donors, in vitro priming of CD8+ T cells of healthy HLA-A*02 donors): ++++ (> = 70% = ++++)
